Measured values: patent US20240158497A1 (published 2024)

T1: Macaca Fascicularis GP130 extracellular domain expressed with a C-terminal myc-myc-hexahistidine tag (Macaca fascicularis, UniProt P40189 23-619 (human entry))
T1 construct: also called mfGP130-MMH; mfGP130-mmH
T1 chain: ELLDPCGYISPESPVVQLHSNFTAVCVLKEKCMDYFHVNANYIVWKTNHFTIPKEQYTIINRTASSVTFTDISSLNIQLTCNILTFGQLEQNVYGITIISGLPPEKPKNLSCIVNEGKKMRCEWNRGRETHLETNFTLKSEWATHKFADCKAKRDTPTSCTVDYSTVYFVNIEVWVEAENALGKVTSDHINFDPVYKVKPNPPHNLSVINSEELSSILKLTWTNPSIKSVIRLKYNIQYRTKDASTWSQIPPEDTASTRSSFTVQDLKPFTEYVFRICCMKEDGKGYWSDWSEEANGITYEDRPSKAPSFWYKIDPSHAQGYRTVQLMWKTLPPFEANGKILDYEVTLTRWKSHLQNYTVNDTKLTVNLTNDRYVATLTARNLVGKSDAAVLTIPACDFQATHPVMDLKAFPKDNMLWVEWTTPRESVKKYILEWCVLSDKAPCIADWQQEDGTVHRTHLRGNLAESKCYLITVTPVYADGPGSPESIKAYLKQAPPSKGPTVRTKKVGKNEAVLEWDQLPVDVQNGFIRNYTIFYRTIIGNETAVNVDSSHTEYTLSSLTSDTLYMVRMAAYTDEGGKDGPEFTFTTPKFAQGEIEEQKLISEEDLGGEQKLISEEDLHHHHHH


What was measured:
[1] = target: T2, Macaca Fascicularis LEPR extracellular domain expressed with a C-terminal myc-myc-hexahistidine tag (Macaca fascicularis, UniProt Q9MYL0 22-837 (rhesus entry)); test: SPR Biacore 4000, bsAb captured by anti-human Fc, 37 C
T2 construct: Monomeric reagent; the whole entry is the construct with its tag; also called mfLEPR-MMH
Experimental: (§1) Equilibrium dissociation constants (KD values) for LEPR and GP130 binding to purified anti-LEPR/GP130 bispecific antibodies were determined using a real-time surface plasmon resonance biosensor using a Biacore 4000 instrument. All binding studies were performed in 10 mM HEPES, 150 mM NaCl, 3 mM EDTA, and 0.05% v/v Surfactant Tween-20, pH 7.4 (HBS-ET) running buffer at 25° C. and 37° C. The Biacore sensor surface was first derivatized by amine coupling with a monoclonal mouse anti-human Fc antibody (GE, #BR-1008-39) to capture anti-LEPR/GP130 bispecific antibodies. […] Different concentrations of LEPR or GP130 reagents were first prepared in HBS-ET running buffer (100 nM-3.7 nM; 3-fold serial dilution) and were injected over anti-human Fc captured anti-LEPR/GP130 bispecific antibody surface for 4 minutes at a flow rate of 30 μL/minute, while the dissociation of bispecific antibody bound LEPR or GP130 reagent was monitored for 10 minutes in HBS-ET running buffer. Kinetic association (kₐ) and dissociation (kd) rate constants were determined by fitting the real-time binding sensorgrams to a 1:1 binding model with mass transport limitation using Scrubber 2.0c curve-fitting software. Binding dissociation equilibrium constants (KD) and dissociative half-lives (t ½) were calculated from the kinetic rate constants as: […]

[2] = target: T3, human LEPR extracellular domain expressed with a C-terminal myc-myc-hexahistidine tag (human, UniProt P48357 22-839); test: as above
T3 construct: Monomeric reagent; the whole entry is the construct with its tag; also called hLEPR-MMH; hLEPR.mmh
Experimental: as §1

[3] = target: T2, Macaca Fascicularis LEPR extracellular …; test: SPR Biacore 4000, bsAb captured by anti-human Fc, 25 C
Experimental: as §1

[4] = target: T3, human LEPR extracellular domain …; test: as above
Experimental: as §1

[5] = target: T1, Macaca Fascicularis GP130 extracellular …; test: SPR, bsAb captured by anti-hFc, 25C
Experimental: as §1

[6] = target: T4, human GP130 extracellular domain expressed with a C-terminal myc-myc-hexahistidine tag (human, UniProt P40189 23-619); test: SPR, bsAb captured by anti-hFc, 25C
T4 construct: also called hGP130-MMH; hGP130-mmH
Experimental: as §1

[7] = target: T1, Macaca Fascicularis GP130 extracellular …; test: SPR, bsAb captured by anti-hFc, 37C
Experimental: as §1

[8] = target: T4, human GP130 extracellular domain …; test: SPR, bsAb captured by anti-hFc, 37C
Experimental: as §1

Row | 100 nM mfLEPR-MMH Bound (RU) [1] [RU] | Kd [1] [nM] | koff [1] [s⁻¹] | kon [1] [M⁻¹ s⁻¹] | t½ [1] [min] | 100 nM hLEPR-MMH Bound (RU) [2] [RU] | Kd [2] [nM] | koff [2] [s⁻¹] | kon [2] [M⁻¹ s⁻¹] | t½ [2] [min] | 100 nM mfLEPR-MMH Bound (RU) [3] [RU] | Kd [3] [nM] | koff [3] [s⁻¹] | kon [3] [M⁻¹ s⁻¹] | t½ [3] [min] | 100 nM hLEPR-MMH Bound (RU) [4] [RU] | Kd [4] [nM] | koff [4] [s⁻¹] | kon [4] [M⁻¹ s⁻¹] | t½ [4] [min] | Binder | also measured
1 | 148 | 5.88 | 0.000567 | 96400 | 20 | 60 | 23 | 0.000842 | 36600 | 14 | 97 | 3.27 | 0.000132 | 40400 | 87 | 39 | 7.11 | 0.000164 | 23100 | 70 | bsAb19156D (bispecific antibody, V domains shown, common light chain) VH 1: QVQLVESGGGVVQPGRSLRLSCTASGFTFSSYAMYWVRQAPGKGLEWVSVIYYDGSYKYYADSVKGRFTISRDNSKNTLYLQMDSLRAEDTAVYYCASYNWNYWYFDFWGRGTLVTVSS VH 2: QVQLVESGGGLVKPGGSLRLSCAASGFTFSDYYMTWIRQTPGKGLDWVSYISSSGTNKYNADSVKGRFTISRDNAKNSLYLQMNSLRAEDTAVYYCVRDPPWGMDVWGQGTTVTVSS VL: not shown | –
2 | – | – | – | – | – | – | – | – | – | – | – | – | – | – | – | – | – | – | – | – | bsAb19140D (bispecific antibody, V domains shown, LEPR x GP130 bispecific with common light chain) VH 1: QVQLVESGGGVVQPGRSLRLSCTASGFTFSSYAMYWVRQAPGKGLEWVSVIYYDGSYKYYADSVKGRFTISRDNSKNTLYLQMDSLRAEDTAVYYCASYNWNYWYFDFWGRGTLVTVSS VH 2: QVQLQESGPGLVKPSETLSLTCTVSGGSISNYYWTWIRQPPGKGLEWIGHISNSGTTNYNPSLKSRVTISVDTSKNQFSLKLTSVTAADTAVYYCARLPLGIAAVDTDYYYYFGMDVWGQGTTVTVSS VL: not shown | 100 nM mfGP130-MMH Bound (RU) [5]: 20 RU; Kd [5]: 136 nM; koff [5]: 0.0546 s⁻¹; kon [5]: 402000 M⁻¹ s⁻¹; t½ [5]: 0.2 min; 100 nM hGP130-MMH Bound (RU) [6]: 23 RU; Kd [6]: 105 nM; koff [6]: 0.0477 s⁻¹; kon [6]: 455000 M⁻¹ s⁻¹; t½ [6]: 0.2 min; 100 nM mfGP130-MMH Bound (RU) [7]: 14 RU; Kd [7]: 183 nM; koff [7]: 0.146 s⁻¹; kon [7]: 797000 M⁻¹ s⁻¹; t½ [7]: 0.1 min; 100 nM hGP130-MMH Bound (RU) [8]: 19 RU; Kd [8]: 144 nM; koff [8]: 0.12 s⁻¹; kon [8]: 829000 M⁻¹ s⁻¹; t½ [8]: 0.1 min
3 | – | – | – | – | – | – | – | – | – | – | – | – | – | – | – | – | – | – | – | – | bsAb19139D (bispecific antibody, V domains shown, LEPR x GP130 bispecific with common light chain) VH 1: QVQLVESGGGVVQPGRSLRLSCTASGFTFSSYAMYWVRQAPGKGLEWVSVIYYDGSYKYYADSVKGRFTISRDNSKNTLYLQMDSLRAEDTAVYYCASYNWNYWYFDFWGRGTLVTVSS VH 2: QVQLVESGGGVVQPGGSLRLSCAASGFTFSTYDIHWVRQAPGKGLEWVAVISFDGSNRNYGDSVKGRFTISRDNSDNTLFLEMNNLRFEDTAVYYCAKEGYGVDFQHWGQGTLVTVSS VL: not shown | 100 nM mfGP130-MMH Bound (RU) [5]: 6 RU; 100 nM hGP130-MMH Bound (RU) [6]: 6 RU; 100 nM mfGP130-MMH Bound (RU) [7]: 2 RU; binding result [7]: no binding (tested: 100 nM); 100 nM hGP130-MMH Bound (RU) [8]: 3 RU; binding result [8]: no binding (tested: 100 nM)
4 | 27 | 151 | 0.00424 | 28100 | 2.7 | 15 | 280 | 0.00442 | 15800 | 2.6 | 16 | 37.8 | 0.00116 | 30800 | – | 11 | 78.7 | 0.00121 | 15300 | – | bsAb21237D (bispecific antibody, V domains shown, common light chain; also called H4H21237D) VH 1: EVQLVESGGGLVQPGGSLRLSCAASGFTFSNYGMTWVRQAPGKGLEWVSAITGGGGSTYYSNSVKGRFTISRDNSKNTVYLRMNSVRAEDTAVYYCAKYKWNFVDDWGQGTTVTVSS VH 2: QVQLVESGGGLVKPGGSLRLSCAASGFTFSDYYMTWIRQTPGKGLDWVSYISSSGTNKYNADSVKGRFTISRDNAKNSLYLQMNSLRAEDTAVYYCVRDPPWGMDVWGQGTTVTVSS VL: not shown | –
5 | 9 | 284 | 0.0176 | 61900 | 0.7 | 5 | 726 | 0.0131 | 18000 | 0.9 | 12 | 83.4 | 0.00482 | 57900 | 2.4 | – | 106 | 0.00372 | 35100 | 3.1 | bsAb21236D (bispecific antibody, V domains shown, common light chain; also called H4H21236D) VH 1: QVQLQESGPGLVKPSQTLSLTCTVSGGSISSGGDYWSWIRQLPGKGLEWIGYIYYSGSAYYNPSLKSRGTISIDTSKNQFSLKLTSVTAADTAVYFCVKLRFLEWFLGGWFGPWGQGTLVTVSS VH 2: QVQLVESGGGLVKPGGSLRLSCAASGFTFSDYYMTWIRQTPGKGLDWVSYISSSGTNKYNADSVKGRFTISRDNAKNSLYLQMNSLRAEDTAVYYCVRDPPWGMDVWGQGTTVTVSS VL: not shown | –
6 | – | – | – | – | – | – | – | – | – | – | – | – | – | – | – | – | – | – | – | – | bsAb19147D (bispecific antibody, V domains shown, LEPR x GP130 bispecific with common light chain) VH 1: QVQLVESGGGVVQPGRSLRLSCTASGFTFSSYAMYWVRQAPGKGLEWVSVIYYDGSYKYYADSVKGRFTISRDNSKNTLYLQMDSLRAEDTAVYYCASYNWNYWYFDFWGRGTLVTVSS VH 2: EVQLVESGGGLVQPGGSLRLSCTASGFTFSNYAIFWVRQAPGKGLEYVSGISNNGVTKYYADSVRDRFTISRDNSRNTVSIQMDSLRTEDMAVYYCARENWGSDDGFDIWGQGTMVTVSS VL: not shown | 100 nM mfGP130-MMH Bound (RU) [5]: 5 RU; 100 nM mfGP130-MMH Bound (RU) [7]: 3 RU; binding result [7]: no binding (tested: 100 nM)
7 | 7 | – | – | – | – | 81 | 19.1 | 0.000625 | 32800 | 18 | 7 | – | – | – | – | 57 | 7.85 | 0.000162 | 20700 | 71 | bsAb19757D (bispecific antibody, V domains shown, common light chain) VH 1: EVQLVESGGGLVQPGGSLRLSCVASGFTFNKYDMHWVRQTTGKGLEWVSGIDTDGDTYYPGSVKGRFTISRENAENSLYLQMNGLRVGDTAVYYCARWPWSGFYGAFDIWGQGTMVTVSS VH 2: EVQLVESGGGVVRPGGSLRLSCTASGFTFDDYGMSWVRQAPGKGLEWVSGINWNGGRTEYADAVKGRFIISRDNAKNSLYLQMNSLRAEDTALYFCARTELRWDYWGQGTLVTVSS VL: not shown | –
8 | 5 | – | – | – | – | 73 | 20.6 | 0.000663 | 32300 | 17 | 9 | 583 | 0.0225 | 38600 | 0.5 | 54 | 10.3 | 0.000163 | 15900 | 71 | bsAb19758D (bispecific antibody, V domains shown, common light chain) VH 1: EVQLVESGGGLVQPGGSLRLSCVASGFTFNKYDMHWVRQTTGKGLEWVSGIDTDGDTYYPGSVKGRFTISRENAENSLYLQMNGLRVGDTAVYYCARWPWSGFYGAFDIWGQGTMVTVSS VH 2: EVQLVESGGGLVQSGGSLRLSCAASGFTFSRYEMNWVRQAPGKGLEWVAYISNTGTTRDYSDSVKGRFTISRDNAKNSLYLQMSSLRVEDTAVYYCVREKFSGTSDWFDPWGQGTLVTVSS VL: not shown | –
